Results as given in patent publication US9549967B2, “Regulation of sodium channels by PLUNC proteins” (The University of North Carolina at Chapel Hill, priority 2009, dated 2017).

What was measured:
[1] = tested on: human bronchial epithelial cultures; assay: Airway surface liquid height by confocal microscopy in human bronchial epithelial cultures; type: cell-based; conditions: SPLUNC1 knockdown cultures; 50 ng/ml rSPLUNC1 added to airway surface liquid
Description: shRNA-induced knockdown of SPLUNC1: Our strategy was to select shRNA sequences from Dharmacon that targeted SPLUNC1 effectively by using transient siRNA in an immortalized human airway epithelial cell line (denoted AALEB) (Lundberg et al., Oncogene 21:4577 (2002)). […] Passage-1 airway cells surviving one week of selection were then trypsinized and plated down on 12 mm T-clear inserts and differentiated under air liquid interface conditions. At the time of the functional assays, we measured airway surface liquid SPLUNC1 protein levels by Western blot to verify stable knockdown. An anti-luciferase shRNA-expressing adenovirus was infected separately as a control.
Confocal microscopy: To label airway surface liquid, Ringer containing Texas Red-dextran (2 mg/ml; Invitrogen) was added to human bronchial epithelial culture mucosal surfaces. Perfluorocarbon was added mucosally to prevent evaporation of the airway surface liquid and the culture placed in a chamber containing 100 μl Ringer on the stage of a Leica SP5 confocal microscope with a 63× glycerol immersion objective. 5 points per culture were scanned and an average airway surface liquid height determined. For confocal microscopy human bronchial epithelial cultures were bathed serosally in a modified Ringer solution containing (mM): 116 NaCl, 10 NaHCO3, 5.1 KCl, 1.2 CaCl2, 1.2 MgCl2, 20 TES, 10 glucose, pH 7.4). […]

ENaC = target: T1, ENaC (Homo sapiens, UniProt P37088+P51168+P51170); assay: Transepithelial electrical resistance of human bronchial epithelial cultures (EVOM); type: cell-based; conditions: washed cultures; 50 ng/ml SPLUNC1 for 30 min or amiloride; effects not additive
T1 construct: endogenous in cells; host or cells: primary human bronchial epithelial cultures
T1 sequence (P37088 1-669): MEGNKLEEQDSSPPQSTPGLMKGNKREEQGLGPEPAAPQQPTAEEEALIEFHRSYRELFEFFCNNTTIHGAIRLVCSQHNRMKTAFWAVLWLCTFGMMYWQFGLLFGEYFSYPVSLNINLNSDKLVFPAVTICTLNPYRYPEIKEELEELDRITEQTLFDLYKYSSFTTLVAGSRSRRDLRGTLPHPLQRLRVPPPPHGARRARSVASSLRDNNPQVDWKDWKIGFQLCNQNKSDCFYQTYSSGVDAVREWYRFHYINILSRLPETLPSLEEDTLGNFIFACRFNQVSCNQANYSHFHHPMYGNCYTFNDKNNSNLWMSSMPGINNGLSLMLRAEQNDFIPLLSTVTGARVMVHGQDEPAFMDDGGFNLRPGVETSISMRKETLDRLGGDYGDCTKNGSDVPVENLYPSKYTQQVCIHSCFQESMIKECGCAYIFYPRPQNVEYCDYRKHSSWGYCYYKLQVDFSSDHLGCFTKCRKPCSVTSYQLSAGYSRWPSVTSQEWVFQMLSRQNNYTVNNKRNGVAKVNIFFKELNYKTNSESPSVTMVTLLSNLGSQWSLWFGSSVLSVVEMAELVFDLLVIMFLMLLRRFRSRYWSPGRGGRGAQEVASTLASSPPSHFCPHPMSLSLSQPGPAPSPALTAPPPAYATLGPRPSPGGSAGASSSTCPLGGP
T1 sequence (P51168 1-640): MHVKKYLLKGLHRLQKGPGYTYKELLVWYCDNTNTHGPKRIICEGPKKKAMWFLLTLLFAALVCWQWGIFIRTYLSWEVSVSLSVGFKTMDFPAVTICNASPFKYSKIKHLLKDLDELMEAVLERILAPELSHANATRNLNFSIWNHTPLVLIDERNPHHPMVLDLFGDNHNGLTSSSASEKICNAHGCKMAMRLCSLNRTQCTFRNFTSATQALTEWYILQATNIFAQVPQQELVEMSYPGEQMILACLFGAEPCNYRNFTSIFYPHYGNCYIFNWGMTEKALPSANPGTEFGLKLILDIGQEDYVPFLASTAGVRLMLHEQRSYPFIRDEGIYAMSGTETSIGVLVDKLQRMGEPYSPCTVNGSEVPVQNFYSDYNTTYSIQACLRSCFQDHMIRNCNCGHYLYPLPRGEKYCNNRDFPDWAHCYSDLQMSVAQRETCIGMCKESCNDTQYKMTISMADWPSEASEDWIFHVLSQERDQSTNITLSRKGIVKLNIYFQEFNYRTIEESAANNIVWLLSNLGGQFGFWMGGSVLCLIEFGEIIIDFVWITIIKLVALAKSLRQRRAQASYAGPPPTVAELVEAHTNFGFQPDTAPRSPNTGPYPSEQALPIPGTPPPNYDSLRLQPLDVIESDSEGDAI
T1 sequence (P51170 1-649): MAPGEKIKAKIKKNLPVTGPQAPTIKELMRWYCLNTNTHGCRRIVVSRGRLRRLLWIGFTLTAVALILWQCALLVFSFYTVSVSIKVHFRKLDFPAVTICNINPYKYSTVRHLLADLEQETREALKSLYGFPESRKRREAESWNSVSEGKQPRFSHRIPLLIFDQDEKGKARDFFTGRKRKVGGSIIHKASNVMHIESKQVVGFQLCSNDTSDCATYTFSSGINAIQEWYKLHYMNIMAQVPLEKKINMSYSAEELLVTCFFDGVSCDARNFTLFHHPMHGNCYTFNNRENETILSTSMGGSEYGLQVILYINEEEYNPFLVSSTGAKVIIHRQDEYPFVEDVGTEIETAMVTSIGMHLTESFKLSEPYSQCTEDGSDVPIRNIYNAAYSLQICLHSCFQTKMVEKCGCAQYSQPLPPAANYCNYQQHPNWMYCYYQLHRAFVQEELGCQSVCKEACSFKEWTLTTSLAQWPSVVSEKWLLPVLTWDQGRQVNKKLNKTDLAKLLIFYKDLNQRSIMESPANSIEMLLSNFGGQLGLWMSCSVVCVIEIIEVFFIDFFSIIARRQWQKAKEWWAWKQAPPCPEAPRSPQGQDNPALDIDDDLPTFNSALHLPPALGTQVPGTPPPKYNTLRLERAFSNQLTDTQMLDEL
Description: Tissue procurement and cell culture: Cells were harvested by enzymatic digestion from human bronchial tissue as previously described under a protocol approved by the UNC School of Medicine IRB (Tarran et al., J. Gen. Physiol. 127:591 (2006)). Human excess donor lungs and excised recipient lungs were obtained at the time of lung transplantation from portions of main stem or […] bronchi and cells were harvested by enzymatic digestion. All preparations were maintained at an air-liquid interface in a modified bronchial epithelial medium and used 2-5 weeks after seeding on 12 mm T-Clear inserts (Corning Costar) coated with human placental type VI collagen (Sigma). Phosphate buffered saline (PBS) was used for washing human bronchial epithelial culture mucosal surfaces.
Microelectrode studies. A single-barreled potential difference-sensing electrode was placed in the airway surface liquid by micromanipulator and used in conjunction with a macroelectrode in the serosal solution to measure transepithelial voltage using a voltmeter (World Precision Instruments). […] Transepithelial resistance was routinely measured using the EVOM system (WPI) as previously described (Tarran et al., J. Gen. Physiol. 127:591 (2006)).

B1: SPLUNC1: human SPLUNC1, 256 amino acid secreted PLUNC protein (SEQ ID NO:1); rSPLUNC1 = V5/6His-tagged protein purified from HEK293 media (protein, listed as Homo sapiens)
chain: MFQTGGLIVFYGLLAQTMAQFGGLPVPLDQTLPLNVNPALPLSPTGLAGSLTNALSNGLLSGGLLGILENLPLLDILKPGGGTSGGLLGGLLGKVTSVIPGLNNIIDIKVTDPQLLELGLVQSPDGHRLYVTIPLGIKLQVNTPLVGASLLRLAVKLDITAEILAVRDKQERIHLVLGDCTHSPGSLQISLLDGLGPLPIQGLLDSLTGILNKVLPELVQGNVCPLVNEVLRGLDITLVHDIVNMLIHGLQFVIKV
modifications: V5/6His tag
notes: rSPLUNC1 = V5/6His-tagged protein purified from HEK293 media
[1]
  regulation of airway surface liquid height: restored
ENaC
  increase of the transepithelial electrical resistance: ~33%
